Where “and” joins values, the source holds several entries; their conditions need not be identical. Equal entries are not always repeated.
T1: Macaca fascicularis CD40 (Macaca fascicularis (cynomolgus monkey), UniProt P25942 21-277 (human entry))
T1 chain: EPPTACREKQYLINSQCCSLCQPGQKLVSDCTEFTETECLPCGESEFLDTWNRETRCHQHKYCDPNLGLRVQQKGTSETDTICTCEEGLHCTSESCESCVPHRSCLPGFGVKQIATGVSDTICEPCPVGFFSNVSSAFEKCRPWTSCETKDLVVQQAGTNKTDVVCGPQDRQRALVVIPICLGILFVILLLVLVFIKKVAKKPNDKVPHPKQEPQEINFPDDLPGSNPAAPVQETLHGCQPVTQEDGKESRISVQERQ

B1: BMS3h-106 (other)
VH: EVQLLESGGGLVQPGGSLRLSCAASGFTFSTYHMQWVRQAPGKGLEWVSMIDADGLGTYYADSVKGRFTISRDNSKNTLYLQMNSLRAEDTAVYYCAKPGPQFGQFDYWGQGTLVTVSS
B2: BMS3h-193-15 (other)
VL: DIQMTQSPSSLSASVGDRVTITCRASRTIERRLNWYQQKPGKAPKLLIYLASRLQSGVPSRFSGSGSGTDFTLTISSLQPEDFATYYCHPYESPPLTFGQGTKVEIKR
notes: dAb, single VK
B3: BMS3h-197 (other)
VH: EVQLLESGGGLVQPGGSLRLSCAASGFTFGSAAMDWVRQAPGKGLEWVSSINDMGSNTYYADSVKGRFTISRDNSKNTLYLQMNSLRAEDTAVYYCAKQGGRFDYWGQGTLVTVSS
B4: BMS3h-198-3 (other)
VH: EVQLLESGGGSVQPGGSLRLSCAATGSTFAGYEMWWVRQAPGKGLERVSAISGSGGSTYYADSVKGRFTISRDDSKNTLYLQMNSLRAEDTAVYYCARDPYSYDYWGQGTLVSVSS
notes: dAb, single VH
B5: BMS3h-107 (other)
VH: EVQLLESGGGLVQPGGSLRLSCAASGFTFSGYDMQWVRQAPGKGLEWVSTISASGVFTYYADSVKGRFTTSRDNSKNTLYLQMNSLRAEDTAVYYCAKYPNRFALNNFDYWGQGTLVTVSS
B6: BMS3h-41-3 (other)
VH: EVQLLEPGGGLVQPGGSLRLSCAASGFTFTEYEMIWVRKAPGKGMEWVSSISGNGANTYYADSVKGRFTISRDNSKNMLYLQMNSLRAEDTAVYYCAKEPLRFGYWGQGTLVTVSS
B7: BMS3h-198-1 (other)
VH: EVQLLESGGGLVQPGGSLRLSCAASGSTIAGYEMWWVRQAPGKGLERVSAISGSGGSTYYADSVKGRFTISRDDSKNTLYLQMNSLRAEDTAVYYCARDPYSFDYWGQGTLVTVSS
notes: dAb, single VH
B8: BMS3h-41-3 (other)
VH: EVQLLEPGGGLVQPGGSLRLSCAASGFTFTEYEMIWVRKAPGKGMEWVSSISGNGANTYYADSVKGRFTISRDNSKNMLYLQMNSLRAEDTAVYYCAKEPLRFGYWGQGTLVTVSS
notes: dAb, single VH
B9: BMS3h-41-10 (other)
VH: EVQLLESGVGLVQPGGSLRLSCAASGFTFTEYEMIWVRKAPGKGLEWVSSISGNGANTYYADSVKGRFTISRDNSKNTLYLQMNSLRAEDTAVYYCAKEPLRFDNWGQGTLVTVSS
notes: dAb, single VH
B10: BMS3h-198-2 (other)
VH: EVQPLESGGGLVQPGGSLRLSCAASGFTFAGYEMWWVRQAPGKGLERISAISGSGGSTYYADSVKGRFTISRDDSKNTLYLQMNSLRAEDTAVYYCARDPYSFDYWGQGTLVTVSS
notes: dAb, single VH
B11: BMS3h-38-2 (other)
VH: EVQLLASGGGLVQPGGSLRLSCAASGFTFEEEEMIWVRQAPGKGLEWVSAISGSGGSTYYADSVKGRFTISRDNSKNTLYLQMNSLRAEDTAVYYCGKEPFRYDYWGQGTLVTVSS
B12: BMS3h-131 (other)
VL: DIQMTQSPSSLSASVGDRVTITCRANSSILWALAWYQQKPGKAPKLLIESSSGLQSGVPSRFSGSGSGTDFTLTISSLQPEDFATYYCVQNAGWPGTFGQGTKVEIKR
B13: BMS3h-131-2 (other)
VL: DIQMTQSPSSLSASVGDRVTITCRADSSILWALAWYQQKPGKAPKLLIESSSGLQSGVPSRFSGSGSGTDFTLTISSLQPEDFATYYCVQNAVWPGTFGQGTKVEIKR
B14: BMS3h-43 (other)
VH: EVQLLESGGGLVQPGGSLRLSCTASGFTFNMYEMSWVRQAPGKGLEWVSGISRRGFTTYYADSVKGRFTISRDNSKNTLYLQMNSLRAEDTAVYYCAKEPITYAMRYARFDYWGQGTLVTVSS
B15: BMS3h-43-5 (other)
VH: EVQLLESGGGLVQPGGSLRLSCTASGFTFNTYEMSWVRQAPGKGLEWVSGIGRRGFTTYYADSVKGRFTISRDNSKNTLYLQMNSLRAEDTAVYYCAKEPITYDLRYARFDYSGQGTLVTVSS
notes: dAb, single VH
B16: BMS3h-43-3 (other)
VH: EVQLLESGGGLVQPGGSLRLSCTASGFTFNMYEMSWVRQAPGKGLEWVSGISRRGFTTYYADSVKGRFTISRDNFKNTLYLQMNSLRAEDTAVYYCAKEPITYDMRYARFDYGGQGTLVTVSS
notes: dAb, single VH
B17: BMS3h-37 (other)
VH: EVQLLESGGGLVQPGGSLRLSCAASGFTFEWYEMQWVRQAPGKGLEWVSAISGDGYRTYYADSVKGRFTISRDNSKNTLYLQMNSLRAEDTAVYYCAKELGYFDYWGQGTLVTVSS
B18: BMS3h-38 (other)
VH: EVQLLESGGGLVQPGGSLRLSCAASGFTFEEEEMIWVRQAPGKGLEWVSAISGSGGSTYYADSVKGRFTISRDNSKNTLYLQMNSLRAEDTAVYYCAKEPFRFDYWGQGTLVTVSS
B19: BMS3h-37-2 (other)
VH: EVQLLESGGGLVQPGGSLRLSCAASGFTFEWYEMQWVRRAPGKGLEWVSAISGDGYRTYYADSVKGRFTISRDNSKNTLYLQMNSLRAEDTAVYYCAKELGYFDYWGRGTLVTVSS
B20: BMS3h-56-201 (other)
VH: EVQLLESGGGLVQPGGSLRLSCAASGFTFRDYEMWWVRQAPGKGLERVSAINPQGTRTYYADSVKGRFTISRDNSKNTLYLQMNSLRAEDTAVYYCAKLPFYFQEWGQGTLVTVSS
notes: domain antibody (dAb): single human VH domain
B21: BMS3h-56 (other)
VH: EVQLLESGGGLVQPGGSLRLSCAASGFTFRDYEMWWVRQAPGKGLERVSAINPQGTRTYYADSVKGRFTISRDNSKNTLYLQMNSLRAEDTAVYYCAKLPFIFDYWGQGTLVTVSS
B22: BMS3h-56-5 (other)
VH: EVQLLESGGGLVQPGGSLRLSCAASGFTFRDYEMWWVRQAPGKGLERVSAINPQGTRTYYADSVMGRFTISRDNSKNTLYLQMNSLRAEDTAVYYCAKLPFTFDDWGQGTLVTVSS
B23: BMS3h-56-202 (other)
VH: EVQLLESGGGLVQPGGSLRLSCAASGFTFRDYEMWWVRQAPGKGLERVSAINPQGTRTYYADSVKGRFTISRDNSKNTLYLQMNSLRAEDTAVYYCAKLPTYFSDRGQGTLVTVSS
B24: BMS3h-56-203 (other)
VH: EVQLLESGGGLVQPGGSLRLSCAASGFTFRDYEMWWVRQAPGKGLERVSAINPQGTRTYYADSVKGRFTISRDNSKNTLYLQMNSLRAEDTAVYYCAKLPFFFEEWGQGTLVTVSS
notes: as for B20
B25: BMS3h-56-206 (other)
VH: EVQLLESGGGLVQPGGSLRLSCAASGFTFRDYEMWWVRQAPGKGLERVSAINPQGTRTYYADSVKGRFTISRDNSKNTLYLQMNSLRAEDTAVYHCAKLPMFFEDWGQGTLVTVSN

Assays:
human CD40 = human CD40 (human, UniProt P25942 21-277); assay: cell-based or functional assay
Macaca fascicularis CD40 = target: T1, Macaca fascicularis CD40; assay: cell-based or functional assay
[1] = target: T2, human CD40 expressed on stably transfected CHO-DG44 cells (human, UniProt P25942 21-277); assay: CHO-CD40 cell RBA, competition with IZ-CD40L
T2 construct: also called CHO-CD40
Description: The mixture was incubated in the absence of light for 6 hours.

[2] = target: T3, human CD40 (BMS, CY24FEB06-01) (human, UniProt P25942 21-193); assay: ELISA RBA, competition with IZ-CD40L;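 also: Neutravidin-coated 384-well plate, dAb–human CD40 complex bound for 2 h at room temperature, absorbance read at 450 nm after HCl stop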
T3 construct: Soluble reagent of the bead and ELISA RBA; It is detected with an anti-human IgG (Fc) mAb, so it may be a CD40-Ig fusion
Description: (§1) Clear walled High Bind, 384-well plates (Corning, UK) were coated with 25 μl of 1 μg/ml Neutravidin in 0.2 M carbonate-bicarbonate buffer, pH 9.4 overnight at 4° C. The following day, assay plates were washed with 0.1% (v/v) Tween PBS buffer, blocked with 1% (w/v) BSA in PBS for 1 hour at room temperature and washed again. […] Following washing of the assay plate, the dAb:human CD40 complex was incubated in the assay plate at room temperature for 2 hours with gentle agitation. […] Absorbance signal was measured using a SpectraMax® M5e plate reader (Molecular Devices) at 450 nm following neutralization with 1M HCl solution.

[3] = target: human CD40 on RAMOS human B cells (human, UniProt P25942 21-277); assay: cell-based or functional assay
[4] = target: T4, human CD40 (BMS, CY24FEB06-01) (human, UniProt P25942 21-193); assay: ELISA RBA, competition with IZ-CD40L for soluble human CD40;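 also: Neutravidin-coated 384-well plates, dAb–human CD40 complex incubated 2 h at room temperature, read-out as absorbance at 450 nm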
T4 construct: Soluble human CD40 reagent of the ELISA RBA
Description: as §1

| Binder | hIZCD40L-driven Human B Cell Proliferation EC50 (human CD40) [nM] | hIZCD40L-driven Cyno B Cell Proliferation EC50 (Macaca fascicularis CD40) [nM] | EC50 [1] [nM] | also measured |
| --- | --- | --- | --- | --- |
| B1 | 437 | > 7000 | – | – |
| B2 | – | – | 300 | – |
| B3 | 360 | > 7000 | – | – |
| B4 | – | – | 330 | – |
| B5 | > 7000 | > 7000 | – | – |
| B6 | 12 | > 7000 | – | – |
| B7 | – | – | 70 | EC50 [2]: 12 nM |
| B8 | – | – | 200 | – |
| B9 | – | – | 4300 | – |
| B10 | – | – | 115 | – |
| B11 | 10 | > 7000 | – | CHO-hCD40L-driven DC Activation IL-12 EC50 (human CD40): 289 nM; CHO-hCD40L-driven Human B Cell Proliferation EC50 (human CD40): 723 nM; T-B cell MLR EC50 (human CD40): 986 nM |
| B12 | 2700 | > 7000 | – | – |
| B13 | 55 | > 7000 | – | – |
| B14 | 83 | > 7000 | – | – |
| B15 | – | – | 90 | – |
| B16 | – | – | 320 | – |
| B17 | 3400 | > 7000 | – | – |
| B18 | 2800 | > 7000 | – | – |
| B19 | 5 | > 7000 | – | CHO-hCD40L-driven DC Activation IL-12 EC50 (human CD40): 13 nM; T-B cell MLR EC50 (human CD40): 198 nM |
| B20 | – | – | – | EC50 ICAM1 cell assay [3]: 10 nM; EC50 [4]: 3.7 nM and 2.3 nM |
| B21 | 713 | > 7000 | – | – |
| B22 | 6 | > 7000 | – | – |
| B23 | – | – | – | EC50 ICAM1 cell assay [3]: 80 nM |
| B24 | – | – | – | EC50 ICAM1 cell assay [3]: 70 nM; EC50 [4]: 5.2 nM and 4.3 nM |
| B25 | – | – | – | EC50 ICAM1 cell assay [3]: 5 nM |
